Test results reported in article PMC6639327, “PLPP/CIN-mediated NEDD4-2 S448 dephosphorylation regulates neuronal excitability via GluA1 ubiquitination” (Cell Death & Disease, 2019).
Each block holds one molecule with its values, some of them ahead of it.

Assays:
[1] = biological target: Neuronal precursor cell expressed developmentally downregulated 4-2 (NEDD4-2) (mouse (endogenous in hippocampus)) (UniProt Q8CFI0); test: co-IP; mouse hippocampal tissue lysed in RIPA buffer with protease and phosphatase inhibitors; equal protein incubated with NEDD4-2, ubiquitin or GluA1 antibody and protein G sepharose at 4 °C overnight; western blot; WT, PLPP/CIN^-/- and PLPP/CIN^Tg mice, saline or KA (25 mg/kg, 2 h), control or NEDD4-2 siRNA
[2] = biological target: T1, Neuronal precursor cell expressed developmentally downregulated 4-2 (NEDD4-2) (mouse (endogenous in hippocampus), UniProt Q8CFI0 1-1004); test: as above; conditions: partners not purified
T1 construct: NEDD4-2 E3 ubiquitin ligase, endogenous in mouse hippocampus; S222 and S328 in murine NEDD4-2; source: endogenous, mouse hippocampal tissue lysate (RIPA buffer)
T1 sequence (looked up): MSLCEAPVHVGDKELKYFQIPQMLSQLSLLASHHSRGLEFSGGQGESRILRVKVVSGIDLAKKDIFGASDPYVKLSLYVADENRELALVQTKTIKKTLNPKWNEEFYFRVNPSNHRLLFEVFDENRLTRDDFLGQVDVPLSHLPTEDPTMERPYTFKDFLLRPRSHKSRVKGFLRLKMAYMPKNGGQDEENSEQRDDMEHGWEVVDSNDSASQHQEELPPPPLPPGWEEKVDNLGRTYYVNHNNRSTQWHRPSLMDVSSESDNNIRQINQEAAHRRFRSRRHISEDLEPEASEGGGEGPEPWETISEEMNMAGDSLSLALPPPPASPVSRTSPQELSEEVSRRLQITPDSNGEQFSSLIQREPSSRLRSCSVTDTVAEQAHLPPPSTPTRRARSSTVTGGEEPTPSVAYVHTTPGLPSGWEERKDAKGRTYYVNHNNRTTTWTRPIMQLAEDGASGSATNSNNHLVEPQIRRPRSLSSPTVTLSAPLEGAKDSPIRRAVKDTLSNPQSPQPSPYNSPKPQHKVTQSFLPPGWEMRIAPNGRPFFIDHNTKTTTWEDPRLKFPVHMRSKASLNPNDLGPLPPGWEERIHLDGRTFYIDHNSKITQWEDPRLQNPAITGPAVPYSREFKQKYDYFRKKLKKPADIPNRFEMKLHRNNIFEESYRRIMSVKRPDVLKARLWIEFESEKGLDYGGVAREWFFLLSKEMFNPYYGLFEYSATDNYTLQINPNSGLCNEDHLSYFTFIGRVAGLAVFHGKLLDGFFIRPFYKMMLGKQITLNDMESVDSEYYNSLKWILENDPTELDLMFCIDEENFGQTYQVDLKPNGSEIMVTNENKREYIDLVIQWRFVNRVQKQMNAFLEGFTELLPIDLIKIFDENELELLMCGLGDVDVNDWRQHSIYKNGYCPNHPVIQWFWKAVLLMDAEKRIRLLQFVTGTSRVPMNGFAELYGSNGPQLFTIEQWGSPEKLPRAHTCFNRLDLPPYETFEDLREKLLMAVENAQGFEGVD

[3] = biological target: T2, full-length recombinant human NEDD4-2, phosphorylated by SGK1 (human, UniProt Q96PU5 1-975, phosphorylated by incubation with 200 U/μl SGK1 and 100 μM ATP (S342 and S448 phosphorylation followed by western blot)); test: co-IP; in vitro with recombinant proteins: NEDD4-2 (10 ng/μl) phosphorylated with 200 U/μl SGK1 and 100 μM ATP in kinase assay buffer I at 30 °C for 1 h, then PLPP/CIN (10 ng/μl) added, 30 °C for 1 h; coprecipitation and western blot; conditions: both partners purified
T2 construct: human NEDD4-2, full-length recombinant protein (Abcam); SGK1 and ATP were still in the sample when PLPP/CIN was added; source: bought: Abcam; phosphorylated in vitro with SGK1 (SignalChem) and ATP
T2 sequence (looked up): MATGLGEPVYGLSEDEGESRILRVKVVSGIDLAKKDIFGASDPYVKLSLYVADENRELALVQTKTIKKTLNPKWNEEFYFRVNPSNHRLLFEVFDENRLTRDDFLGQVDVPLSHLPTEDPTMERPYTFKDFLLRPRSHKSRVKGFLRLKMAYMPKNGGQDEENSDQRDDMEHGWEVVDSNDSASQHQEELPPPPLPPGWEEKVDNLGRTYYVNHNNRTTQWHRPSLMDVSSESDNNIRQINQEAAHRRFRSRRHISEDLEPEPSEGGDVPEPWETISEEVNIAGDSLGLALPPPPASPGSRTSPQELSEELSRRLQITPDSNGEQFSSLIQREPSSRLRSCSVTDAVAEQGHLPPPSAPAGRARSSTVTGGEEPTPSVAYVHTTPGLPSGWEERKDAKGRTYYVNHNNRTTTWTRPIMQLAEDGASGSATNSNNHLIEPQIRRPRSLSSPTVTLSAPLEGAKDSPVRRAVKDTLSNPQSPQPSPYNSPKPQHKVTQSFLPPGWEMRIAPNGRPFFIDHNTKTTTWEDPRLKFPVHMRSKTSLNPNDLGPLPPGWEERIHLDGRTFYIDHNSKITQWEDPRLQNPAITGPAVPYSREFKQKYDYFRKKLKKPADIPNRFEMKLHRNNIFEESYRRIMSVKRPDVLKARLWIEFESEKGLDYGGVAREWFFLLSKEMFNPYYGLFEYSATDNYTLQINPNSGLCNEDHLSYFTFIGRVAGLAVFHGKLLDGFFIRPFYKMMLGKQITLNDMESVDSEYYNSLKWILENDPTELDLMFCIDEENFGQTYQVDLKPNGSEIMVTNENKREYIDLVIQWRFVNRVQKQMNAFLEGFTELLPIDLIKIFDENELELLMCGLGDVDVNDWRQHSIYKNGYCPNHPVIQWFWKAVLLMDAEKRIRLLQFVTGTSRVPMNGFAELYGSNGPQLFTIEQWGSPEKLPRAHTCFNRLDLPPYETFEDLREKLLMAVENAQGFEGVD

fold of the binding in WT mice [1]: 1.4 fold
Molecule: PLPP/CIN in PLPP/CIN transgenic (PLPP/CIN^Tg) mice (from UniProt P60487 1-292)

fold of control level (2 h after KA, WT mice) [2]: ~1.4 fold
B1: Pyridoxal-5'-phosphate phosphatase/chronophin (PLPP/CIN) (enzyme, mouse (endogenous in hippocampus), UniProt P60487 1-292, looked up)
chain: MARCERLRGAALRDVLGQAQGVLFDCDGVLWNGERIVPGAPELLQRLARAGKNTLFVSNNSRRARPELALRFARLGFAGLRAEQLFSSALCAARLLRQRLSGPPDASGAVFVLGGEGLRAELRAAGLRLAGDPGEDPRVRAVLVGYDEQFSFSRLTEACAHLRDPDCLLVATDRDPWHPLSDGSRTPGTGSLAAAVETASGRQALVVGKPSPYMFQCITEDFSVDPARTLMVGDRLETDILFGHRCGMTTVLTLTGVSSLEEAQAYLTAGQRDLVPHYYVESIADLMEGLED
notes: Pyridoxal-5'-phosphate phosphatase/chronophin, endogenous in the hippocampus of WT mice; source: endogenous, mouse hippocampal tissue lysate (RIPA buffer)

binding result [3]: binds
B2: recombinant human PLPP/CIN protein (enzyme, UniProt Q96GD0 1-296, looked up)
chain: MARCERLRGAALRDVLGRAQGVLFDCDGVLWNGERAVPGAPELLERLARAGKAALFVSNNSRRARPELALRFARLGFGGLRAEQLFSSALCAARLLRQRLPGPPDAPGAVFVLGGEGLRAELRAAGLRLAGDPSAGDGAAPRVRAVLVGYDEHFSFAKLREACAHLRDPECLLVATDRDPWHPLSDGSRTPGTGSLAAAVETASGRQALVVGKPSPYMFECITENFSIDPARTLMVGDRLETDILFGHRCGMTTVLTLTGVSRLEEAQAYLAAGQHDLVPHYYVESIADLTEGLED
notes: human pyridoxal-5'-phosphate phosphatase/chronophin, recombinant protein (Abcam); The sentence reads 'full-length recombinant human NEDD4-2 (Abcam, UK) and human PLPP/CIN proteins'; whether 'full-length' also covers PLPP/CIN is not clear; source: bought: Abcam
